# Test results from patent US20110150903A1 (Sanofi, published 2011).
# Values joined by “and” are separate entries in the source; they are usually repeats but may differ in a detail not shown here. Identical values can stand only once.
# T1: hFGFR3-Fc (human, UniProt P22607 23-375)
# T1 construct: extracellular domain; Bought from R&D Systems; not shown: Fc domain of human IgG1
# T1 sequence (looked up): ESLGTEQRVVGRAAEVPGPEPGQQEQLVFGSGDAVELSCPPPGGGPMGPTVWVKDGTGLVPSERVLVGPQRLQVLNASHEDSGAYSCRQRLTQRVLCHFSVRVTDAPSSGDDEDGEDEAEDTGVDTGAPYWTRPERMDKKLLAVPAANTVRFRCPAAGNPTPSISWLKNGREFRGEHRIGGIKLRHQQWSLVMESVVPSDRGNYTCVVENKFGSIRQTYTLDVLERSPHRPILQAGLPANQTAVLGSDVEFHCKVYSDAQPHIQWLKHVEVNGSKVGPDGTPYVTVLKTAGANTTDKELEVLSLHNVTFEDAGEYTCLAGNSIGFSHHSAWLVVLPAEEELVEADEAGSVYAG
# B1: anti-FGFR4 antibody clone 36 (human IgG1 format) (antibody, V domains shown)
# VH: EVQLLESGGGLVQPGGSLRLSCAASGFTFSHYWMGWVRQAPGKGLEWVSVISPSGGLTIYADSVKGRFTISRDNSKNTLYLQMNSLRAEDTAVYYCARSSGWALDAFDIWGQGTMVTVSS
# VL: QYELTQPPSASGTPGQRVTISCSGSSSNIGSNIVHWYQQLPGTAPKLLIYGNNQRPSGVPDRFSVSKSGSSASLAISGLQSEDEADYYCASWDDSLKAFYVFGTGTKVTVLG
# notes: As for clone 8: human IgG1 format from HEK293; also called antibody 36
# B2: clone 36 in the Fab format displayed on phage (Fab, V domains shown)
# VH: B1 VH
# VL: B1 VL
# B3: anti-FGFR4 antibody clone 8 (human IgG1 format) (antibody, V domains shown)
# VH: EVQLLESGGGLVQPGGSLRLSCAASGFTFSPYWMGWVRQAPGKGLEWVSVIWPSGGTTDYADSVKGRFTISRDNSKNTLYLQMNSLRAEDTAVYYCARVHPAGHNDHWGQGTLVTVSS
# VL: QSELTQPPSASGTPGQRVTISCSGGYSNMGSNYAHWYQQLPGTAPKLLIYNNNQRPSGVPDRFSGSKSGTSASLAISGLRSEDEADYYCAAWDDSLSGPVFGGGTKLTVLG
# notes: also called antibody 8
# B4: clone 8 in the Fab format displayed on phage (Fab, V domains shown)
# VH: B3 VH
# VL: B3 VL
# B5: anti-FGFR4 antibody clone 33 (human IgG1 format) (antibody, V domains shown)
# VH: EVQLLESGGGLVQPGGSLRLSCAASGFTFSTYWMAWVRQAPGKGLEWVSVIGPSGGMTVYADSVKGRFTISRDNSKNTLYLQMNSLRAEDTAVYYCARINSGSSHFDYWGQGTLVTVSS
# VL: QSVLTQPPSASGTPGQGVTISCSGSSSNIGSNSVNWYQQLPGAAPKLLIYSNNLRPSGVPARFSGSKSGTSASLAISGLRSEDEADYYCAAWDDGLDAYVVFGGGTKLTVLG
# notes: As for clone 8: human IgG1 format from HEK293; also called antibody 33
# B6: clone 33 in the Fab format displayed on phage (Fab, V domains shown)
# VH: B5 VH
# VL: B5 VL
# B7: anti-FGFR4 antagonist monoclonal antibody 40-12 (antibody, mouse IgG1, kappa, V domains shown)
# VH: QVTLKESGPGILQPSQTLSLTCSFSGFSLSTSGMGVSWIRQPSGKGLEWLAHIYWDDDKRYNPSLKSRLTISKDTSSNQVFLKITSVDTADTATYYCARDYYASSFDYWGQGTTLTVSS
# VL: DIVLTQSPATLSVTPGDRVSLSCRASQSISNYLHWYQQKSHESPRLLIKYASQSISGIPSRFSGSGSGTDFILSFNSVETEDFGMYFCQQSNSWPFTFGSGTKLEIKR
# notes: Purified on protein G; also called clone 40-12; anti-FGFR4 40-12
# B8: anti-FGFR4 antibody clone 31 (human IgG1 format) (antibody, V domains shown)
# VH: EVQLLESGGGLVQPGGSLRLSCAASGFTFSRYFMKWVRQAPGKGLEWVSWISPSGGLTEYADSVKGRFTISRDNSKNTLYLQMNSLRAEDTAVYYCARASYGAWLDYWGQGTLVTVSS
# VL: DIQMTQSPSSLSLSPGERATLSCRASQSINRNLGWYQQKPGQAPRLLIYGASTRATGIPARFTGSGSGTEFSLTISSLQSEDYAIYYCQQYDNWPIIFGQGTRLEIKG
# notes: As for clone 8: human IgG1 format from HEK293; also called antibody 31
# B9: clone 31 in the Fab format displayed on phage (Fab, V domains shown)
# VH: B8 VH
# VL: B8 VL
# B10: anti-FGFR4 antibody 64-12 (antibody, mouse IgG1, V domains shown)
# VH: DVQLVESGGGLVQPGGSRKLSCAASGFTFSNFGMHWVRQAPEKGLEWVAYISSGSSTIYYADTVKGRFTISRDNPKNTLFLQMTSLRSEDTAMYYCARYDYDDDYYAMEYWGQGTSVTVSS
# VL: QAVVTQESALTTSPGETVTLTCRSSTGAVTTSNYANWVQEKPDHLFTGLIGGTNNRAPGVPARFSGSLIGDKAALTITGAQTEDEAIYFCALWYSNHWVFGGGTKLTVLG
# notes: also called clone 64-12; control antibody 64-12
# What was measured:
# [1] = target: T2, hFGFR4-Histag (human, UniProt P22455 22-365); test: SPR (BIAcore 3000)
# T2 construct: also called SABVA4614
# [2] = target: T3, mFGFR4-Histag (murine, UniProt Q03142 19-362); test: SPR (BIAcore 3000)
# T3 construct: also called murine protein mFGFR4; murine FGF-R4
# [3] = target: T2, hFGFR4-Histag; test: ELISA, HEK293 supernatant IgG on coated antigen
# Text: (§1) The capture antigen was bound to Immulon-4 enzyme-linked plates (VWR Scientific Inc. Swedesboro, N.J.).
# [4] = target: T4, hFGFR4(D2,D3)-Histag (human, UniProt P22455 22-365); test: ELISA, HEK293 supernatant IgG on coated antigen
# T4 construct: also called extracellular domain of FGF-R4 deleted of its D1 domain
# Text: as §1
# [5] = target: T1, hFGFR3-Fc; test: phage Fab ELISA on coated antigen, anti-M13 detection
# Text: (§2) The specificity of each antibody is established by ELISA according to the following protocol: suspensions of phages displaying, at their surface, the antibodies in the Fab format are generated by infection of E. coli bacteria. The capture antigens were bound to Immulon-2 enzyme-linked dishes (VWR Scientific Inc. Swedesboro, N.J.).
# [6] = target: T4, hFGFR4(D2,D3)-Histag; test: as above
# Text: as §2
# [7] = target: T5, hFGFR1-Fc (human); test: as above
# T5 construct: Extracellular domain of human FGF-R1 IIIc fused C-terminally to the Fc domain of human IgG1
# Text: as §2
# [8] = target: T6, hFGFR2-Fc (human); test: as above
# T6 construct: Extracellular domain of human FGF-R2 IIIc fused C-terminally to the Fc domain of human IgG1
# Text: as §2
# [9] = target: T7, rat FGF-R4 expressed on transfected 300-19 cells (rat, UniProt Q498D6 17-800); test: displacement of labelled rat FGF2 from rat FGF-R4 on 300-19 cells; rat FGF-R4, rat FGF2; in ng/ml
# T7 construct: also called rFGFR4
# Experimental: (§3) Firstly, competition binding experiments were carried out.
# (§4) The dissociation experiments were carried out using the 300-19 lines transfected with mouse or rat FGF-R4 receptors.
# [10] = target: T8, human FGF-R4 expressed on cells (human, UniProt P22455 22-802); test: displacement of FGF2-AF488 (10 ng/ml) from human FGF-R4 on 300-19 cells
# T8 construct: whole, on cells; Functional assays: endogenous receptor of human Hep3b and HUVEC cells; also called human FGF-R4s expressed at the surface of transfected 300-19 cells; FGF-R4 of Hep3b and HUVEC cells
# [11] = target: T9, mouse FGF-R4 expressed on transfected 300-19 cells (mouse, UniProt Q03142 17-799); test: displacement of labelled murine FGF2 from mouse FGF-R4 on 300-19 cells; mouse FGF-R4, murine FGF2; in ng/ml
# T9 construct: whole, on cells; also called murine FGF-R4
# Experimental: as §3, §4
# [12] = target: T10, hFGFR4_D3:Fc (SABVA4799) (human); test: ELISA on coated subdomain-Fc construct
# T10 construct: also called fGFGR4_D3::Fc
# Text: as §1
# [13] = target: T11, hFGFR4_D2:Fc (SABVA4796) (human); test: ELISA on coated subdomain-Fc construct
# T11 construct: FGF-R4_HUMAN positions 1 to 32 plus 145 to 242 fused to the Fc domain of human IgG1; also called fGFGR4_D2::Fc
# Text: as §1
# [14] = target: T12, hFGFR4_D1:Fc (SABVA4794) (human); test: ELISA on coated subdomain-Fc construct
# T12 construct: FGF-R4_HUMAN positions 1 to 179 fused to the Fc domain of human IgG1; also called fGFGR4_D1::Fc
# Text: as §1
# [15] = target: T1, hFGFR3-Fc; test: ELISA on plates coated with the 4 human FGF receptors, antibody concentration not given
# [16] = target: T5, hFGFR1-Fc; test: as above
# [17] = target: T6, hFGFR2-Fc; test: as above
# [18] = target: T13, human FGF-R4 recombinant extracellular domain protein, construct not named (human, UniProt P22455 22-369); test: SPR (BIAcore), antibody captured by anti-Fc antibody on the chip
# T13 construct: extracellular domain; also called the FGF-R4 protein; complete extracellular domain of human FGF-R4
# [19] = target: T1, hFGFR3-Fc; test: ELISA on plates coated with the 4 human FGF receptors, single condition, antibody concentration not given
# [20] = target: T3, mFGFR4-Histag; test: ELISA on coated FGF-R4 constructs, single condition, antibody concentration not given
Binder,Kd [1] [nM],koff [1] [s⁻¹],kon [1] [M⁻¹ s⁻¹],Kd [2] [nM],koff [2] [s⁻¹],kon [2] [M⁻¹ s⁻¹],OD signal at 450 nm [3] [OD 450 nm],OD signal at 450 nm [4] [OD 450 nm],"ELISA signal (OD, 450 nm) [5] [OD 450 nm]","ELISA signal (OD, 450 nm) [6] [OD 450 nm]","ELISA signal (OD, 450 nm) [7] [OD 450 nm]","ELISA signal (OD, 450 nm) [8] [OD 450 nm]",other results
B1,2.62,0.000631,244000,2.28,0.000752,330000,3.75,3.62,–,–,–,–,–
B2,–,–,–,–,–,–,–,–,-0.02,1.87,-0.01,-0.01,–
B3,0.327,0.000292,893000,0.115,0.000136,1.2e+06,3.9,3.86,–,–,–,–,–
B4,–,–,–,–,–,–,–,–,0,2.55,0.05,0,–
B5,0.771,0.000617,805000,0.692,0.000704,1.01e+06,3.75,3.62,–,–,–,–,–
B6,–,–,–,–,–,–,–,–,-0.01,2.73,0,0,–
B7,–,–,–,–,–,–,–,–,–,–,–,–,"IC50 [9]: 3.94 µg/mL; IC50 [10]: 3.5 µg/mL and 23 nM; IC50 [11]: 4.11 µg/mL; Signal (O.D., 450 nm) [12]: 0.105 O.D. 450 nm; Signal (O.D., 450 nm) [13]: 3 O.D. 450 nm; Signal (O.D., 450 nm) [14]: 0.185 O.D. 450 nm; binding result [15]: no binding; binding result [16]: no binding; binding result [17]: no binding; Kd [18]: 6.5 nM; koff [18]: 0.00126 s⁻¹; kon [18]: 194000 M⁻¹ s⁻¹"
B8,1.52,0.00098,648000,1.97,0.0018,914000,3.86,3.74,–,–,–,–,–
B9,–,–,–,–,–,–,–,–,0.01,2.52,0,0,–
B10,–,–,–,–,–,–,–,–,–,–,–,–,binding result [19]: binds; binding result [20]: binds; Kd [18]: 57.5 nM; koff [18]: 0.000602 s⁻¹; kon [18]: 10500 M⁻¹ s⁻¹
